# Measurements: article PMC9239176, “Involvement of the DNA Phosphorothioation System in TorR Binding and Anaerobic TMAO Respiration in Salmonella enterica”
# T1: TorR CTD (Salmonella enterica serovar Cerro 87, UniProt Q8ZKZ5 127-230)
# T1 sequence: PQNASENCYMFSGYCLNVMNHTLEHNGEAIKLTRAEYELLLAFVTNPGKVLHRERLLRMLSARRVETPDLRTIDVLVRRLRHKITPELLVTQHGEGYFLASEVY
# Tests used:
# [1] = tested on: DndF (Salmonella enterica serovar Cerro 87); experiment: pull-down LC-MS/MS; conditions: EMSA: 50 nM DNA, 20 mM Tris-HCl pH 8.0, 50 mM KCl, 10 mM MgCl2, 5 mM EDTA, 10 mM DTT, 5% glycerol, 28 C 30 min, gel at 4 C, pull-down: cell lysate, 4 C 4 h
# [2] = tested on: Biotin carboxyl carrier protein of acetyl-CoA carboxylase (Salmonella enterica serovar Cerro 87); experiment: pull-down LC-MS/MS; conditions: EMSA: 50 nM DNA, 20 mM Tris-HCl pH 8.0, 50 mM KCl, 10 mM MgCl2, 5 mM EDTA, 10 mM DTT, 5% glycerol, 28 C 30 min, gel at 4 C, pull-down: cell lysate, 4 C 4 h
# [3] = tested on: DndG (Salmonella enterica serovar Cerro 87); experiment: pull-down LC-MS/MS; conditions: EMSA: 50 nM DNA, 20 mM Tris-HCl pH 8.0, 50 mM KCl, 10 mM MgCl2, 5 mM EDTA, 10 mM DTT, 5% glycerol, 28 C 30 min, gel at 4 C, pull-down: cell lysate, 4 C 4 h
# TorR CTD = molecular target: T1, TorR CTD; experiment: EMSA; EMSA: 50 nM DNA, 20 mM Tris-HCl pH 8.0, 50 mM KCl, 10 mM MgCl2, 5 mM EDTA, 10 mM DTT, 5% glycerol, 28 C 30 min, gel at 4 C; pull-down: cell lysate, 4 C 4 h; conditions: protein: recombinant; tags: His (pET28a, Ni-NTA)
# [4] = phosphorothioate: strand 1 between G13 and A14, strand 2 between G15 and T16
molecule,measurement,setting,value
GGCCCACTACGTGAACCATCACCCTAATCA (double strand) [B34],binding signal (B34/B12 ratio),[1],0.43
same,binding signal (B34/B12 ratio),[2],2.78
same,binding signal (B34/B12 ratio),[3],0.32
GGCCCACTACGTGAACCATCACCCTAATCA (double strand) [B12],binding signal (normalized spectral count),[1]; [4],20.2
same,binding signal (normalized spectral count),[2]; [4],1.41
same,binding signal (normalized spectral count),[3]; [4],30.9
"tor box1, PT (dsDNA, phosphorothioate GpsTTC/GpsAAC) DNA 1: CCTGCGCGCGGTCTCTTTCTGTTCATATCT DNA 2: AGATATGAACAGAAAGAGACCGCGCGCAGG",binding result,TorR CTD,binds
